From publication PMC5383425, “Differential CLE peptide perception by plant receptors implicated from structural and functional analyses of TDIF-TDR interactions” (PLoS ONE, 2017)
Where a chain is given by its changes, count along the chain named. Square brackets hold non-standard residues; d marks the D form. Ends that are not written are not given here. Hyp = O=C(O)[C@@H]1C[C@@H](O)CN1

Legend:
Test in all cases: ITC
[1] = target: T1, ecdTDR W353A mutant (Arabidopsis thaliana, UniProt Q9FII5 30-642, W353A)
T1 sequence: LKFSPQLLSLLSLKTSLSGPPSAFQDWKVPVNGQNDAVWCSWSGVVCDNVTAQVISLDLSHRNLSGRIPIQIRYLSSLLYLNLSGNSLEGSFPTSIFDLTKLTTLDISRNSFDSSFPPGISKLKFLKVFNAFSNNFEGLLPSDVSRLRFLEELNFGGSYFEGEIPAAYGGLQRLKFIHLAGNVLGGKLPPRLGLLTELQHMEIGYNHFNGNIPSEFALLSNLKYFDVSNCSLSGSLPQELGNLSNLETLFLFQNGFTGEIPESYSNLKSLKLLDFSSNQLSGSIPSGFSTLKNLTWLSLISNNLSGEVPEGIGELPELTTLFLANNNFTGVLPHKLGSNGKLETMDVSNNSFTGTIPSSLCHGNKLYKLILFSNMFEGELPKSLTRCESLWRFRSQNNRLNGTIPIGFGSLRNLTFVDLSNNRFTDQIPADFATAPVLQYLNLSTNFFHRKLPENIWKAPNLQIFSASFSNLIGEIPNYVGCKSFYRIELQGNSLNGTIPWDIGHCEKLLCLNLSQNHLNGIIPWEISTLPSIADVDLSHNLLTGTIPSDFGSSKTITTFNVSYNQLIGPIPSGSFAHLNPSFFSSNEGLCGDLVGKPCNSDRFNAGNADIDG

[2] = target: T2, ecdTDR F281 alanine mutant (Arabidopsis thaliana, UniProt Q9FII5 30-642, alanine substitution of F281)
T2 sequence: T1 sequence with F252A, A324W

[3] = target: T3, TDR-R421A/R423A double mutant (ecdTDR) (Arabidopsis thaliana, UniProt Q9FII5 30-642, R421A | R423A)
T3 sequence: T1 sequence with A324W, R392A, R394A

[4] = target: T4, ecdTDR mutant with all five N-terminal anchoring site-binding residues replaced by alanine (Arabidopsis thaliana, UniProt Q9FII5 30-642)
T4 chain: T1 sequence with R109A, F132A, S133A, S158A, Y159A, A324W

B1: Tracheary Element Differentiation Inhibitory Factor (TDIF) peptide (peptide)
peptide: HEV[Hyp]SG[Hyp]NPISN
notes: TDIF, the 12-residue CLE peptide processed from CLE41 and CLE44 of A. thaliana; printed as HEV(Hyp)SG(Hyp)NPISN; numbers count on: the 12-residue peptide; CLE44 encodes the same peptide; also called wild type TDIF; wtTDIF; source: synthetic peptide (peptide 2.0)
- Kd [1]: 862 nM
- Kd [2]: 787 nM
- Kd [3]: 306 nM
- Kd [4]: 3.24 µM
